Source: paper PMC5260909

Key:
[1] = biological target: Endogenous NMDAR (GluN1 subunit) of mouse cortical neurons and mouse brain (mouse (endogenous in cortical neurons of Swiss mice)) (UniProt P35438)
[2] = biological target: NMDAR of rat GluN1-1b WT with WT GluN2A, on transfected HEK-293 cells (rat) (UniProt Q00959)
[3] = biological target: NMDAR of rat GluN1-1b WT with WT GluN2A, on transfected HEK-293 cells (rat) (UniProt Q00959); remark: listed apart in the source

Sequence of UniProt Q00959 (Q00959 whole entry, looked up): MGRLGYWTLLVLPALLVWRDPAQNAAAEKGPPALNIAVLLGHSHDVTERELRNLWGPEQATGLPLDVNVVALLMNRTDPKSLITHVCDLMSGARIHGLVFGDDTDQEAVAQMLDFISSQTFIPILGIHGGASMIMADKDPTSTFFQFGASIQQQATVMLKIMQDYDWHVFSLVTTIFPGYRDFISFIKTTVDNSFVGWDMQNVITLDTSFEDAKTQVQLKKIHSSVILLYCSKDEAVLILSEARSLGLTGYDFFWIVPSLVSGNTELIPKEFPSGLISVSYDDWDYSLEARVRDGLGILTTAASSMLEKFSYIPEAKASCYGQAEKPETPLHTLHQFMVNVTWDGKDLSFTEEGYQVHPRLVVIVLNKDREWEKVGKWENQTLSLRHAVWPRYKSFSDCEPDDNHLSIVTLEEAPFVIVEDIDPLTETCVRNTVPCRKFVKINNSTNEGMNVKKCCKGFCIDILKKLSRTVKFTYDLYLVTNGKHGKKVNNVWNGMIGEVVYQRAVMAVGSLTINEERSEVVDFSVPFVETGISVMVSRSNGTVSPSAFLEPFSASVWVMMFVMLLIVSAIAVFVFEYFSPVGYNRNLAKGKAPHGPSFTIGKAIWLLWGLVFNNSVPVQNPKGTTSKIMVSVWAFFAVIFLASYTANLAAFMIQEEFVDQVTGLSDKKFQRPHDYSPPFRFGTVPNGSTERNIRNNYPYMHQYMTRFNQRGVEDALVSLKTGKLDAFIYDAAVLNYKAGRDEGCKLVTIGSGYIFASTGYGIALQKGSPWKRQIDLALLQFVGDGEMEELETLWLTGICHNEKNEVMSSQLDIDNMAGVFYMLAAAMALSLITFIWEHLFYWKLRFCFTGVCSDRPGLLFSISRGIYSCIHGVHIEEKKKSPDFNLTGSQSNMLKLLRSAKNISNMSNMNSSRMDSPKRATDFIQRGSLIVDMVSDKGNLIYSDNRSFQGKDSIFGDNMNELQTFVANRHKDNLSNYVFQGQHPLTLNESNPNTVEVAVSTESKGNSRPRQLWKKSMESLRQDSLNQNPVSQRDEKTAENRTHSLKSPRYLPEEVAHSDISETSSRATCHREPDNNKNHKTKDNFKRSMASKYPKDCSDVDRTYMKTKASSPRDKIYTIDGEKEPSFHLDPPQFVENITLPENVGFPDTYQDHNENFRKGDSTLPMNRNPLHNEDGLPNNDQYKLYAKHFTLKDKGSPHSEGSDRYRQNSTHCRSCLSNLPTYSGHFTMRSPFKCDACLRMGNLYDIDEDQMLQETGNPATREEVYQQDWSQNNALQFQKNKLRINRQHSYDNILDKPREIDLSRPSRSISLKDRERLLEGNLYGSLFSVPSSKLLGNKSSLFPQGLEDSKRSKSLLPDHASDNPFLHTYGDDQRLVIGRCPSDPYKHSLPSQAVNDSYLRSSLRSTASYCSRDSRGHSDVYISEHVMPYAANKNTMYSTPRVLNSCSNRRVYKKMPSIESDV

Row | NMDA-induced calcium influx (Fura-2 video imaging) in primary cultures of mouse cortical neurons; potentiation after 45 min with tPA 300 nM [1] | NMDA-induced calcium influx in primary cultures of mouse cortical neurons; tPA 300 nM together with the antibody of clone 6C9B6 10 μg/ml (% of potentiation) [1] | NMDA-induced calcium influx (Fura-2 video imaging) in HEK-293 cells transfected with GluN1-1b WT and GluN2A; potentiation after 20 min with tPA 300 nM (% of potentiation) [2] | NMDA-induced calcium influx in HEK-293 cells transfected with GluN1-1b WT, GluN2A and tPA WT; change after 20 min with the antibody Glunomab 10 μg/ml (% of potentiation) [3] | Substance
1 | 31% | 38 | 27 |  | Human tissue-type plasminogen activator (tPA, Actilyse) (enzyme)
2 |  |  |  | -18 | WT rat tissue-type plasminogen activator (tPA WT), expressed in HEK-293 cells (from UniProt P19637 33-559) (enzyme)
